The record followed here is publication PMC4621513, “APOBEC3G Interacts with ssDNA by Two Modes: AFM Studies”.

The target in this data set is APOBEC3G (A3G) (UniProt Q9HC16 1-384). In words: AFM force spectroscopy; two binding modes; stronger and more stable complexes than with nonspecific ssDNA; Force spectroscopy probing buffer: 50 mM HEPES, 100 mM NaCl, 5 mM MgCl2, 1 mM DTT (pH and temperature not given); imaging buffer not in the material. To be noted: protein: recombinant; tags: mycHis (C-terminal).
Sequence of APOBEC3G (A3G) (Q9HC16 whole entry): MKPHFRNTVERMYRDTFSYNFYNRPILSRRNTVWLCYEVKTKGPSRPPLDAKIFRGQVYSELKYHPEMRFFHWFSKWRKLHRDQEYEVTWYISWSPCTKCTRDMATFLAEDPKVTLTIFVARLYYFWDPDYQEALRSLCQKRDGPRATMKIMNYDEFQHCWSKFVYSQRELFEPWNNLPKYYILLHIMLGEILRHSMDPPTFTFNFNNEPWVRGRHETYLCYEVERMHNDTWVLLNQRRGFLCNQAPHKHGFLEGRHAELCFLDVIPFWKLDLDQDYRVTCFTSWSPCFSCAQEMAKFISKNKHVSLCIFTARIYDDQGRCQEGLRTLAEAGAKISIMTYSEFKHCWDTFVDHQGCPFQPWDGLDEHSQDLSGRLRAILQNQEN

B1: 69 nt deaminase specific ssDNA (ssDNA)
DNA: TACGTGTAGGAATTATATTAAAGAGAAAGTGAAACCCAAAGAATGAAAACCCAAATGTTAGAATTGTTA
modifications: 5' thiol
On to B1, for which the binding result was “binds”.
